This is an account of results in patent publication US7455998B2, “Methods for forming structurally defined organic molecules” (Dow Corning Corporation, priority 2004, dated 2008).

The nature of assay [1]: Protease-catalyzed condensation study after three hours. The assay is classed as biochemical. As to the method: In comparison to control reactions, the ability of the proteases detailed in Table 3 to catalyse siloxane condensation was screened with […]. Comparatively, the original reactions conducted in the enzyme-catalysed condensation study were performed for six days versus three hours in this study.
Prior to reaction, the glass vials were silylated. […].
TLCK inhibits trypsin by alkylating the histidine residue in the catalytic triad.

Assay [2] in a line: Hydrolysis and condensation control reactions after three hours. The settings on record: for condensation of trimethylethoxysilane (result in words): pH 7.0, 25° C., three hours.
Protocol: Prior to reaction, the alkoxysilane was pre-treated with sodium hydrogencarbonate due to the potential presence of residual chloro-functional silanes. The reactions were formulated with a 4:1 trimethylethoxysilane to protein weight ratio (˜1000:l alkoxysilane to trypsin mole ratio) in neutral media (pH 7.0) and conducted at 25° C. for three hours.
The next assay has as its target T1, α-chymotrypsin (Bos taurus, UniProt P00766).
T1 construct: purchased Sigma-Aldrich #C-4129; host or cells: bovine pancreas
Kind of assay: Standard enzymatic activity assay of inhibited α-chymotrypsin. Type of assay: biochemical, bovine. The settings on record: excess inhibitor (4:1 BBI to protease mole ratio), pH 7.0, two hours. From the text:
Since α-chymotrypsin was inhibited by PCI, the presence of trypsin in α-chymotrypsin was confirmed. In addition, condensation was not observed despite the partial inhibition of α-chymotrypsin with BBI.

Assay [3] addresses T2, trypsin (Bos taurus, UniProt P00760).
T2 sequence (P00760 24-246): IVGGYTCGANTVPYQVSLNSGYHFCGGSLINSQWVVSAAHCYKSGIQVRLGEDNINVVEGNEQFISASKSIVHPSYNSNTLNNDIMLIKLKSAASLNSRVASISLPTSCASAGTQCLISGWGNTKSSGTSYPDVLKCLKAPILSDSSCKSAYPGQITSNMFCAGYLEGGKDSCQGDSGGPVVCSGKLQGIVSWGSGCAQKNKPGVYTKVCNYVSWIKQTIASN
Nature of the assay: Proteinaceous inhibition of the trimethylethoxysilane reaction. The assay is classed as biochemical, bovine. Further details: purchased Sigma-Aldrich #T4665; host or cells: bovine pancreas. The settings on record: 25° C., three hours, pH 7.0. As to the method:
A proteinaceous inhibition study was conducted to investigate the role of the enzymatic active site in the hydrolysis and condensation of trimethylethoxysilane. […] .

The target in assay [4] is T2, trypsin. Kind of assay: Standard enzymatic activity assay of inhibited trypsin. Type of assay: biochemical, bovine. Further details: purchased Sigma-Aldrich #T4665; host or cells: bovine pancreas. The conditions noted are these: excess inhibitor (4:1 BBI, 2:1 PCI to protease mole ratio), pH 7.0, two hours. As for the experimental part: Since α-chymotrypsin was inhibited by PCI, the presence of trypsin in α-chymotrypsin was confirmed. […] .
A proteinaceous inhibition study was conducted to investigate the role of the enzymatic active site in the hydrolysis and condensation of trimethylethoxysilane.

Assay [5] can be described thus: Hydrolysis and condensation of trimethylethoxysilane by different sources of trypsin; effect of calcium. Type of assay: biochemical. The settings on record: for increase of yield of the condensation of trimethylsilanol with calcium: 20 mM CaCl2, pH 7.0, 25° C., three hours; for hydrolysis of trimethylethoxysilane and condensation of trimethylsilanol (result in words): pH 7.0, 25° C. From the text: Although various sources (e.g. mammalian, fish) of trypsin are similar (e.g. tertiary structure), their selectivity and activity may be different. […] . The reaction products were isolated and quantitatively analysed by GC (FIG. 24).
Calcium activation of trypsin induces changes in the tertiary structure of the enzyme. […] . […] The reaction products were isolated and quantitatively analysed by GC (FIG. 25).

The nature of assay [6]: Enzyme-catalyzed condensation study after six days. Type of assay: biochemical. From the text: This study was directed to an enzyme screen with […] in order to evaluate the ability of various enzymes to catalyze the formation of a siloxane bond. Based on the similarities of the proteins isolated from the Tethya aurantia marine sponge (silicatein), Cylindrotheca fusiformis diatom (silaffin), and Equisetum telmateia plant (biopolymer extract), a series of lipases and serine-proteases were selected as homologous proteolytic enzymes. […] […]. In this study, control reactions were defined as non-enzymatic reactions. Specifically, experiments conducted in the absence of a protein were defined as negative control reactions. Proteinaceous molecules such as bovine serum albumin and porcine γ-globulins were used to study non-specific protein catalysis.
[…]. […] (˜200 mg/mL).

A short description of assay [7]: Temperature and pH studies of the trypsin-catalyzed condensation of trimethylsilanol. The assay is classed as biochemical. As for the experimental part: The effect of temperature on trypsin as well as the enzyme-catalyzed condensation reaction was studied. Prior to reaction, buffered aqueous solutions (pH 7.0) of trypsin were stirred and equilibrated at set temperatures in a thermostated water bath (+/−0.1° C.) for 20 minutes. […] In the thermal denaturation experiments, trypsin was boiled for 20 minutes and three hours in 50 mM Tris-HCl buffered Milli-Q water (pH 7.0), independently, before performing the condensation reaction at 25° C.
. […] Based on the chromatographic data, the enzyme-catalyzed condensation reaction was dependent on the pH. The silanol condensation reaction was optimum at pH 7.0.

As for `[Ca+2].[Cl-].[Cl-]` [CaCl2, calcium chloride], in assay [1] (pH 7), the “condensation of trimethylsilanol (result in words)” value is “not observed”. In addition, in assay [2], the “condensation of trimethylethoxysilane (result in words)” value (from here on “condensation of trimethylethoxysilane”) is reported as “not observed”.

On to `Cn1ccnc1` [N-methylimidazole], for which, in assay [1] (pH 7.0, three hours), the “condensation of trimethylsilanol (result in words)” value was “not observed”. For the same molecule, the “condensation of trimethylethoxysilane” value in assay [2] is “not observed”.

Turning to `c1c[nH]cn1` [imidazole], the “condensation of trimethylsilanol (result in words)” value in assay [1] (pH 7.0, three hours) is reported as “not observed”. Moreover, the “condensation of trimethylethoxysilane” value in assay [2] is recorded as “not observed”.

In the case of poly-L-lysine, in assay [1] (pH 7.0, three hours), the “condensation of trimethylsilanol (result in words)” value is given as “not observed”. In assay [2] (neutral medium (pH 7.0)), the “hydrolysis of trimethylethoxysilane (result in words)” value is on record as “promoted the hydrolysis”. Moreover, in assay [2], the “condensation of trimethylethoxysilane” value was “not observed”.

B1: BBI: trypsin-chymotrypsin inhibitor from soybean, 71 amino acids (protein, UniProt P01055 40-110, looked up)
Bowman-Birk type proteinase …: DDESSKPCCDQCACTKSNPPQCRCSDMRLNSCHSACKSCICALSYPAQCFCVDITDFCYEPCKPSEDDKEN
On to B1, for which the “inhibition of α-chymotrypsin” value in the assay with α-chymotrypsin is 63%. In the assay with trypsin [3], the “decrease of percent hydrolysis of trimethylethoxysilane with inhibited trypsin” value is recorded as 24%. The inhibition of trypsin in the assay with trypsin [4] is 98%.

B2: porcine pancreas trypsin: porcine pancreatic trypsin (protein, UniProt P00761 9-231, looked up)
Trypsin: IVGGYTCAANSIPYQVSLNSGSHFCGGSLINSQWVVSAAHCYKSRIQVRLGEHNIDVLEGNEQFINAAKIITHPNFNGNTLDNDIMLIKLSSPATLNSRVATVSLPRSCAAAGTECLISGWGNTKSSGSSYPSLLQCLKAPVLSDSSCKSSYPGQITGNMICVGFLEGGKDSCQGDSGGPVVCNGQLQGIVSWGYGCAQKNKPGVYTKVCNYVNWIQQTIAAN
Turning to B2, the “increase of yield of the condensation of trimethylsilanol with calcium” value (shortened to “increase of yield … with calcium”) in assay [5] is 125%. Besides, the “hydrolysis of trimethylethoxysilane and condensation of trimethylsilanol (result in words)” value in assay [5] was “catalysed the complete hydrolysis”; in assay [5] (listed as trypsin from porcine pancreas), “observed to catalyse the hydrolysis and condensation reactions”.

B3: Rhizomucor miehei lipase: fungal lipase (protein, UniProt P19515 95-363, looked up)
Lipase: SIDGGIRAATSQEINELTYYTTLSANSYCRTVIPGATWDCIHCDATEDLKIIKTWSTLIYDTNAMVARGDSEKTIYIVFRGSSSIRNWIADLTFVPVSYPPVSGTKVHKGFLDSYGEVQNELVATVLDQFKQYPSYKVAVTGHSLGGATALLCALDLYQREEGLSSSNLFLYTQGQPRVGDPAFANYVVSTGIPYRRTVNERDIVPHLPPAAFGFLHAGEEYWITDNSPETVQVCTSDLETSDCSNSIVPFTSVLDHLSYFGINTGLCT
Consider B3, for which, in assay [6] (25° C.), the “condensation of trimethylsilanol, Water” value is “✓ (determined to catalyse the condensation of greater than ten times more trimethylsilanol than the negative control reactions; as well as, greater than three or ten times more trimethylsilanol than the BSA reactions in organic and aqueous media, respectively)”.

B4: PCI: trypsin inhibitor from Glycine max, 181 amino acids (protein, UniProt P01070 25-205, looked up)
Trypsin inhibitor A: DFVLDNEGNPLENGGTYYILSDITAFGGIRAAPTGNERCPLTVVQSRNELDKGIGTIISSPYRIRFIAEGHPLSLKFDSFAVIMLCVGIPTEWSVVEDLPEGPAVKIGENKDAMDGWFRLERVSDDEFNNYKLVFCPQQAEDDKCGDIGISIDHDDGTRRLVVSKNKPLVVQFQKLDKESL
For B4, the “decrease of percent hydrolysis of trimethylethoxysilane with inhibited trypsin” value with trypsin [3] stood at 6%. Further, the inhibition of trypsin with trypsin [4] is 91%.

B5: Candida antarctica lipase B: Candida antarctica lipase B immobilized on acrylic resin beads (protein, UniProt P41365 26-342, looked up)
Lipase B: LPSGSDPAFSQPKSVLDAGLTCQGASPSSVSKPILLVPGTGTTGPQSFDSNWIPLSTQLGYTPCWISPPPFMLNDTQVNTEYMVNAITALYAGSGNNKLPVLTWSQGGLVAQWGLTFFPSIRSKVDRLMAFAPDYKGTVLAGPLDALAVSAPSVWQQTTGSALTTALRNAGGLTQIVPTTNLYSATDEIVQPQVSNSPLDSSYLFNGKNVQAQAVCGPLFVIDHAGSLTSQFSYVVGRSALRSTTGQARSADYGITDCNPLPANDLTPEQKVAAAALLAPAAAAIVAGPKQNCEPDLMPYARPFAVGKRTCSGIVTP
modifications: immobilized on acrylic resin
notes: Candida antarctica lipase B immobilized on acrylic resin beads
Take B5: in assay [6] (25° C.), the “condensation of trimethylsilanol, Water” value is “✓ (determined to catalyse the condensation of greater than ten times more trimethylsilanol than the negative control reactions; as well as, greater than three or ten times more trimethylsilanol than the BSA reactions in organic and aqueous media, respectively)”.

B6: trypsin: bovine pancreatic trypsin, commercial preparation (protein, UniProt P00760 24-246, looked up)
Serine protease 1: T2 sequence (P00760 24-246)
Take B6: the “condensation of trimethylsilanol (result in words)” value in assay [1] (pH 7.0, three hours) is “preferentially catalyzed the condensation”. Besides, the “optimum pH of the silanol condensation reaction” value in assay [7] (25° C., three hours, pH 4.0 to pH 10.0) is 7.0. Besides, the “optimum temperature of the condensation reaction” value in assay [7] (pH 7.0, three hours) is “approximately 25 °C”. Further, the “increase of yield … with calcium” value in assay [5] is “did not change”. For the same molecule, the “condensation of trimethylsilanol, Buffered pH 7” value in assay [6] (50 mM Tris-HCl pH 7.0, 25° C.) was “✓ (determined to catalyse the condensation of greater than ten times more trimethylsilanol than the negative control reactions; as well as, greater than three or ten times more trimethylsilanol than the BSA reactions in organic and aqueous media, respectively)”. In addition, the “condensation of trimethylsilanol, Dry Toluene” value in assay [6] (dry toluene, 25° C.) is “✓ (determined to catalyse the condensation of greater than ten times more trimethylsilanol than the negative control reactions; as well as, greater than three or ten times more trimethylsilanol than the BSA reactions in organic and aqueous media, respectively)”. Moreover, the “condensation of trimethylsilanol, Water” value in assay [6] (25° C.) was “✓ (determined to catalyse the condensation of greater than ten times more trimethylsilanol than the negative control reactions; as well as, greater than three or ten times more trimethylsilanol than the BSA reactions in organic and aqueous media, respectively)”. For the same molecule, the “condensation of trimethylsilanol, Wet Toluene” value in assay [6] (wet toluene, 25° C.) is “✓ (determined to catalyse the condensation of greater than ten times more trimethylsilanol than the negative control reactions; as well as, greater than three or ten times more trimethylsilanol than the BSA reactions in organic and aqueous media, respectively)”.

B7: recombinant bovine trypsin: Recombinant bovine trypsin expressed in maize (protein, UniProt P00760 24-246, looked up)
Serine protease 1: T2 sequence (P00760 24-246)
modifications: expressed in maize
As to B7, in assay [5], the “increase of yield … with calcium” value amounted to 65%; the “hydrolysis of trimethylethoxysilane and condensation of trimethylsilanol (result in words)” value is given as “catalysed the complete hydrolysis”.
